Results from PMC7374751, “TIMP-3 facilitates binding of target metalloproteinases to the endocytic receptor LRP-1 and promotes scavenging of MMP-1” (Scientific Reports, 2020).

Tests used:
Conditions in all cases: both partners purified
[1] = molecular target: T1, FLAG-tagged ADAMTS-4 lacking the C-terminal spacer domain (ADAMTS4-2) (UniProt O75173 213-685); test: enzyme inhibition kinetics (fluorogenic peptide substrates); apparent Ki; enzyme pre-incubated with TIMP-3 (0.5-100 nM) 1 h at 37 °C, equilibrium rate of substrate hydrolysis; TNC buffer (50 mM Tris-HCl pH 7.5, 150 mM NaCl, 10 mM CaCl2, 0.05% Brij-35, 0.02% NaN3), 37 °C; tight-binding equation
T1 construct: ADAMTS-4 lacking the C-terminal spacer domain
T1 sequence (looked up): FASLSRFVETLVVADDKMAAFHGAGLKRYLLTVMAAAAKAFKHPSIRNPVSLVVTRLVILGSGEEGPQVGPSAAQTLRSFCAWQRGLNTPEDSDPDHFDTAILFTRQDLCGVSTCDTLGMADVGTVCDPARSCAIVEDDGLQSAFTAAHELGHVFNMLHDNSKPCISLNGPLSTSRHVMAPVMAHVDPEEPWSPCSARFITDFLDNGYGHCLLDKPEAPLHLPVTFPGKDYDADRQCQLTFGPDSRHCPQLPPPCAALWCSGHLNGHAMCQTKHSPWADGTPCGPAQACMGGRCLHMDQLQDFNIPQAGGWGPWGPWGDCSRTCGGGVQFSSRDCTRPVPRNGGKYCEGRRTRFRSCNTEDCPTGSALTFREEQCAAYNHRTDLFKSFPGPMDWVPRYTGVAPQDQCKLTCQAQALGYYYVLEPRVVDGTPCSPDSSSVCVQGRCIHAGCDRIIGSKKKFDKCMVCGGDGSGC

[2] = molecular target: T2, MMP-3 catalytic domain (MMP-3ΔC) (UniProt P08254 100-272); test: as above
T2 construct: catalytic domain of MMP-3; pro-domain removed with APMA
T2 sequence (P08254 100-272, stated change not applied): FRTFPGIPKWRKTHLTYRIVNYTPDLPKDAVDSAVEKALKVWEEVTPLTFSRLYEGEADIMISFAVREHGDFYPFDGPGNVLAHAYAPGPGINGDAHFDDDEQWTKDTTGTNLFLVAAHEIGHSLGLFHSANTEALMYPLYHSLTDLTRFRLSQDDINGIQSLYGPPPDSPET

[3] = molecular target: T3, catalytic domain of human MMP-1 (MMP-1ΔC) (human, UniProt P03956 100-269); test: as above
T3 construct: catalytic domain of human MMP-1 (lacks the hemopexin domain); pro-domain removed with APMA
T3 sequence (looked up): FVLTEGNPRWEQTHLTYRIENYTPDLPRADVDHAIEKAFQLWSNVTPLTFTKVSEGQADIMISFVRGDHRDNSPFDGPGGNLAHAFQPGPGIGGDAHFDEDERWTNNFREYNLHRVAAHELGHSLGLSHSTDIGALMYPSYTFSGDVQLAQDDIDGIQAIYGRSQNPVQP

[4] = molecular target: T4, low-density lipoprotein receptor-related protein 1 (LRP-1) (UniProt Q07954 20-4544); test: SPR; BIAcore T200; LRP-1 immobilised on a CM5 chip by amine coupling (3000 RU); 25 °C; 150 mM NaCl, 10 mM CaCl2, 50 mM Tris-HCl, 0.01% Tween-20, pH 7.5; 30 μl/min; ligands or pre-formed complexes injected; one-site binding model; triplicate
T4 construct: low-density lipoprotein receptor-related protein 1 (LRP-1), bought from Biomac; source: bought: Biomac (Leipzig, Germany)
T4 sequence (Q07954 20-4544): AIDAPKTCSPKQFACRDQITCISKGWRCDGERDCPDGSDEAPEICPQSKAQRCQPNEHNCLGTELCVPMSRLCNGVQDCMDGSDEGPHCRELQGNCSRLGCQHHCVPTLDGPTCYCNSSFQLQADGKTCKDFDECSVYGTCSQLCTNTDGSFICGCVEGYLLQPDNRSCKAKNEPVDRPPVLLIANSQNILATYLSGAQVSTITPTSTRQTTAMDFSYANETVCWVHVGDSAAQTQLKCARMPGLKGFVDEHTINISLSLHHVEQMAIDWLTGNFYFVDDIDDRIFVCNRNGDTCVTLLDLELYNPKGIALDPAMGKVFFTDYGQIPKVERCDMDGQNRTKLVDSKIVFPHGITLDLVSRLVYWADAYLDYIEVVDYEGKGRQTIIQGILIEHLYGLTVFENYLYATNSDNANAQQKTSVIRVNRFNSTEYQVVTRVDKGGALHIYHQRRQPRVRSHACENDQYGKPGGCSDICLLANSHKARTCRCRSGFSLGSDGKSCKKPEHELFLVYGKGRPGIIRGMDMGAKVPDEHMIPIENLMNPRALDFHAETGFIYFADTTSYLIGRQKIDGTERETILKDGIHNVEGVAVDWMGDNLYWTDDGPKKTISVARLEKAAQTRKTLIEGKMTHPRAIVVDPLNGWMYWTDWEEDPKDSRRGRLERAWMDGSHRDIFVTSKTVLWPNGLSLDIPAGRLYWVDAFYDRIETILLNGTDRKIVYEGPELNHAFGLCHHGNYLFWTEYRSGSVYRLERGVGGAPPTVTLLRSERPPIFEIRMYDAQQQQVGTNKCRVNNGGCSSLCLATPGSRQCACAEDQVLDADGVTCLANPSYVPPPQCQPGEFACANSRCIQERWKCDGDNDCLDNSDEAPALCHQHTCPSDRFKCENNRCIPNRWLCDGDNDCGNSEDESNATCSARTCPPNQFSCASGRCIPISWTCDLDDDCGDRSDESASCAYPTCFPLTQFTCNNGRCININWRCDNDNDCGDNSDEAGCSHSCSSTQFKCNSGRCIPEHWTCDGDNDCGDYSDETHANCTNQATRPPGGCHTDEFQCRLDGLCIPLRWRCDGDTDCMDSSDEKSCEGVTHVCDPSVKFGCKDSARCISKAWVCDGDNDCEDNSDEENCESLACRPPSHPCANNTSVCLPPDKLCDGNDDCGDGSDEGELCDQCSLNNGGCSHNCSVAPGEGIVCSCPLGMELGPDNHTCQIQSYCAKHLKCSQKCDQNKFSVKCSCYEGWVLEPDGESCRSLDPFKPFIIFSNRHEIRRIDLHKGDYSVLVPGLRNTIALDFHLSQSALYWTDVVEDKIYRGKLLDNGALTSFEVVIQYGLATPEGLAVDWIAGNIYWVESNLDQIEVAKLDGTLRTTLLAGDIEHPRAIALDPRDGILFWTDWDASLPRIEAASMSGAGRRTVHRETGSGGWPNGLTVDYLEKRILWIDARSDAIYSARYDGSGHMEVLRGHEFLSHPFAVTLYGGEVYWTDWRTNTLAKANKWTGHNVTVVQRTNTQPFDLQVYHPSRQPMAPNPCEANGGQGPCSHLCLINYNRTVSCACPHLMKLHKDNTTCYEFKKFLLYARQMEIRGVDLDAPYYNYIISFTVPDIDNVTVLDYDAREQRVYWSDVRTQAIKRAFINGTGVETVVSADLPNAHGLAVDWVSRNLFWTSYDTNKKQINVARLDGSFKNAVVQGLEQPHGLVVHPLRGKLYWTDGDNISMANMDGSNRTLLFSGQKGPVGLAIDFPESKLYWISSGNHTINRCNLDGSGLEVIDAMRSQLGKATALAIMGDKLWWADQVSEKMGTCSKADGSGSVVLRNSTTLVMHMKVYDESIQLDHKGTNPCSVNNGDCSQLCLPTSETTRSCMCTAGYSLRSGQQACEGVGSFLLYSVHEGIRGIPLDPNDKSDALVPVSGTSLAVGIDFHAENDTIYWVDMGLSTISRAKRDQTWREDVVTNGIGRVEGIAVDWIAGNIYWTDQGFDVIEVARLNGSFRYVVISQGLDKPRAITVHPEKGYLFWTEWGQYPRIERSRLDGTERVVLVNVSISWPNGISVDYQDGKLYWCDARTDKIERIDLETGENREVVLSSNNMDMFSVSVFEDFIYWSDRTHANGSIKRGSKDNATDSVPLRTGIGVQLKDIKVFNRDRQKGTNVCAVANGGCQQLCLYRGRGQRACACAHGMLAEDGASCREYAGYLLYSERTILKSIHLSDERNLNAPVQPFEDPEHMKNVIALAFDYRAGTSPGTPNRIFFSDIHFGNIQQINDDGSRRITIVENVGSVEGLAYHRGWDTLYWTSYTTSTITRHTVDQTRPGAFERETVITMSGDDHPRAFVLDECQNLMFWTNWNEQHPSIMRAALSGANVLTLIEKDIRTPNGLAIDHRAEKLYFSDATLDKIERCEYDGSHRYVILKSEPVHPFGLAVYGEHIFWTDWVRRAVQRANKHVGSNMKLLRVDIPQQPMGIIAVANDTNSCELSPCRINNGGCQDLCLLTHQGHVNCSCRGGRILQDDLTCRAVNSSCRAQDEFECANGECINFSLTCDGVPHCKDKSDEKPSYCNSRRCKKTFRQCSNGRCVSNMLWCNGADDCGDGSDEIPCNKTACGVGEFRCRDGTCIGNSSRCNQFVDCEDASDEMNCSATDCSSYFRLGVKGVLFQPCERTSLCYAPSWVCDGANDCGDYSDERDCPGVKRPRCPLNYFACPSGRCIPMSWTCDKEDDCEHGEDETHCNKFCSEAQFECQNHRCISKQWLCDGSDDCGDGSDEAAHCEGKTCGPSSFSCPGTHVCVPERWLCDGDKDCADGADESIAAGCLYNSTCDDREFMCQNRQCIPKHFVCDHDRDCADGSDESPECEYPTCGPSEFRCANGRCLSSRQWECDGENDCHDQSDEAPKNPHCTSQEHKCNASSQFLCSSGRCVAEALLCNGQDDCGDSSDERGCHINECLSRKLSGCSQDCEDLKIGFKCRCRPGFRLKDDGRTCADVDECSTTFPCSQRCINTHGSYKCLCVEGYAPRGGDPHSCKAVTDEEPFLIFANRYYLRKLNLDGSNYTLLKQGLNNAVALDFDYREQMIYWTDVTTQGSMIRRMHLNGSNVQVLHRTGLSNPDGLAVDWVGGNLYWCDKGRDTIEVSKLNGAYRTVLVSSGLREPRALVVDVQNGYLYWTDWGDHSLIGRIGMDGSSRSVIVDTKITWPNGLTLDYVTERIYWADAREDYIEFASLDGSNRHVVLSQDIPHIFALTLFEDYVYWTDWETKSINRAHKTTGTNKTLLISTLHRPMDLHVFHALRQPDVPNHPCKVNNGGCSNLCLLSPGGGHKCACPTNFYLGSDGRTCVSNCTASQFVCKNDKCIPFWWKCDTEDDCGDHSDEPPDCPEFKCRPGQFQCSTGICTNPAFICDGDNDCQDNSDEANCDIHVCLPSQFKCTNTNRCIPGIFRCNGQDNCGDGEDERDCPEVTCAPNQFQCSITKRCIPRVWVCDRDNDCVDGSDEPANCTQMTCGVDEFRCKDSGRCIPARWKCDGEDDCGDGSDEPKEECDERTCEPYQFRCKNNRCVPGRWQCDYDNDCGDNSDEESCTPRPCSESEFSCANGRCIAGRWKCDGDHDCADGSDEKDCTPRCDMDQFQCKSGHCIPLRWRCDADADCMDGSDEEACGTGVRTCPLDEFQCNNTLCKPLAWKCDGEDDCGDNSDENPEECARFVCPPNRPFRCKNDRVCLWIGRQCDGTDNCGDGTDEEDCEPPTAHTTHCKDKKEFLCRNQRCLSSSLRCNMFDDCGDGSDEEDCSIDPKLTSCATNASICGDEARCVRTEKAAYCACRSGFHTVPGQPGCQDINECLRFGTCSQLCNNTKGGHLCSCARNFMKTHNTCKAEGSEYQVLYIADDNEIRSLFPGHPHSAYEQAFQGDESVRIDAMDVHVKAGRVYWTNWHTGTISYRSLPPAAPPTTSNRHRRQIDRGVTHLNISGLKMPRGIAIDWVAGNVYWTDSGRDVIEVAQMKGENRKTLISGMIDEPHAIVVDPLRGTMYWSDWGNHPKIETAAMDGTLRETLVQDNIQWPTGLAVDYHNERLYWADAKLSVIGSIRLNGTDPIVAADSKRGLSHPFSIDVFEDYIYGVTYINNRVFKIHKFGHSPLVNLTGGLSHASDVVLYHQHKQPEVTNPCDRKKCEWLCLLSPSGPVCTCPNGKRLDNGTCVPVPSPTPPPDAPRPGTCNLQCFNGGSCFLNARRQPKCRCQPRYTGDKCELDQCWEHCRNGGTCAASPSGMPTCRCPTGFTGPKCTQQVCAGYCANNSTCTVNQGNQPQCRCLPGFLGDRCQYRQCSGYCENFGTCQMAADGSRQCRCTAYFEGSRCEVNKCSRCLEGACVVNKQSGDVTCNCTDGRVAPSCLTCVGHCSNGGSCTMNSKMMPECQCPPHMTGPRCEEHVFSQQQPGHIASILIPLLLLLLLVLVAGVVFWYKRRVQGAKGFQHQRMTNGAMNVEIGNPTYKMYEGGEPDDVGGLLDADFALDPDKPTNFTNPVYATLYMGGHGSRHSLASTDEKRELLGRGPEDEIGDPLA

B1: FLAG-tagged TIMP-3 (natural protein, UniProt P35625 24-211, looked up)
chain: CTCSPSHPQDAFCNSDIVIRAKVVGKKLVKEGPFGTLVYTIKQMKMYRGFTKMPHVQYIHTEASESLCGLKLEVNKYQYLLTGRVYDGKMYTGLCNFVERWDQLTLSQRKGLNYRYHLGCNCKIKSCYYLPCFVTSKNECLWTDMLSNFGYPGYQSKHYACIRQKGGYCSWYRGWAPPDKSIINATDP
notes: also called T3; [35S]TIMP-3
Ki [1]: 1.24 nM
Ki [2]: 0.55 nM
Ki [3]: 1.86 nM
Kd [4]: 1.68 nM
koff [4]: 0.00389 s⁻¹
kon [4]: 2.31e+06 M⁻¹ s⁻¹
